Earlier results in article PMC11988861, “Step Enzymatic Hydrolysis and In Silico Screening-Assisted Preparation of Bioactive Peptides from Abalone” (Foods, 2025).

Molecular target: ACE (Homo sapiens, UniProt P12821)
Parameters: method as in PMID 35323475
Conditions: literature ACEi peptides from skipjack tuna muscle

Sequence of ACE (P12821 30-1306, species assumed): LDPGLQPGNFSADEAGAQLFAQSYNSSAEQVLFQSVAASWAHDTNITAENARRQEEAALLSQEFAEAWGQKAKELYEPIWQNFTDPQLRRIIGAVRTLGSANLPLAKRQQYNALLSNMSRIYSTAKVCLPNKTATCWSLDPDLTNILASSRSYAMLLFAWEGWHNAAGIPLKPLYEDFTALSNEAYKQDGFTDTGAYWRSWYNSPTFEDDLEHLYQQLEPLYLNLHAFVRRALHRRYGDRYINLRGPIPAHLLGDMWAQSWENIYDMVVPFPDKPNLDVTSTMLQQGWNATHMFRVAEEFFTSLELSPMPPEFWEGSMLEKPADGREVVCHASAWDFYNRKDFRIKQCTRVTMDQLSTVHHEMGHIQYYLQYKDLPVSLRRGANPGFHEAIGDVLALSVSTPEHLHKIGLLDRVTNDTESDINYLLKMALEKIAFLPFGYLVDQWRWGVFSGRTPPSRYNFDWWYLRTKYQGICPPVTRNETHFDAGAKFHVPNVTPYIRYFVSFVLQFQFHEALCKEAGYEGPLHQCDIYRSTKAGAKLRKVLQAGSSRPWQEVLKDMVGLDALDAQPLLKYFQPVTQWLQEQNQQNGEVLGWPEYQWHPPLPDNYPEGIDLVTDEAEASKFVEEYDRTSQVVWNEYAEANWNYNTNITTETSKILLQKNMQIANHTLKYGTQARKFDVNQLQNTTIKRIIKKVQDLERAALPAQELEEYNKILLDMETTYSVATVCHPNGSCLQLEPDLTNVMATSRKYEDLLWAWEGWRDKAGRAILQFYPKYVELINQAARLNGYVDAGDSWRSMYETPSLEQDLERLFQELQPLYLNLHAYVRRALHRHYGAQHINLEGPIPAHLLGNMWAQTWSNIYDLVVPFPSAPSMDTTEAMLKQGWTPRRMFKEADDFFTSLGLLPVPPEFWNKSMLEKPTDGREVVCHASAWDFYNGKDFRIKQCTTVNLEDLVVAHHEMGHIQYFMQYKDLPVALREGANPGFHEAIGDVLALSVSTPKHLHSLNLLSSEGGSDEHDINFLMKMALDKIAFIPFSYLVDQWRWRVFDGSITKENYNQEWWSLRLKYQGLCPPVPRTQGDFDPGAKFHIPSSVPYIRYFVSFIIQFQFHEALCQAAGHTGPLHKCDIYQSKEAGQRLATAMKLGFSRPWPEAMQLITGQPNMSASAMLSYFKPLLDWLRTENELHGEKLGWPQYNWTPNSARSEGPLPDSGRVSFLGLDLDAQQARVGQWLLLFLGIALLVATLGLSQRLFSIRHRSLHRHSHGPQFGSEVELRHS

ACEi IC50: 280 µg/mL
Substance: VDRYF
